This is an account of results in patent US20150368316A1 (ALBERT EINSTEIN COLLEGE OF MEDICINE OF YESHIVA UNIVERSITY, published 2015).

Holding throughout (assay): Kd from fitting (SPR)
The target in one experiment is T1, mouse PD-L2-Ig (mouse, UniProt Q9WUL5 20-219).
T1 construct: also called mPD-L2-Ig; not shown: Ig part of the fusion
T1 sequence (looked up): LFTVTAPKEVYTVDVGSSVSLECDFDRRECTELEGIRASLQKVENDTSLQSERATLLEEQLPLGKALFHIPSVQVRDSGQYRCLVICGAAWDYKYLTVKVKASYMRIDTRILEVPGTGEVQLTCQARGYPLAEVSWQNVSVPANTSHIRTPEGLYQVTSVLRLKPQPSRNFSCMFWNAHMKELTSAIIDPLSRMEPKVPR

Experiment [1] addresses T2, human PD-L2-Ig (immobilized) (human, UniProt Q9BQ51 20-219).
T2 construct: also called huPD-L2; huPD-L2-Ig; not shown: Ig part of the fusion
T2 sequence (looked up): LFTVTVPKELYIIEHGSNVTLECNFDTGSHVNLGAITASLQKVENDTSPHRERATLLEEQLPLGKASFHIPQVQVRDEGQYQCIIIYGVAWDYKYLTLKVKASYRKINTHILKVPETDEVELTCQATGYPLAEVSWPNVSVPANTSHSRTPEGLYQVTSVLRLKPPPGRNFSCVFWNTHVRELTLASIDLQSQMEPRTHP

In experiment [2] the target is T3, human PD-L1-Ig (immobilized) (human, UniProt Q9NZQ7 19-238).
T3 construct: also called huPD-L1; huPD-L1-Ig; not shown: Ig part of the fusion
T3 sequence (Q9NZQ7 19-238): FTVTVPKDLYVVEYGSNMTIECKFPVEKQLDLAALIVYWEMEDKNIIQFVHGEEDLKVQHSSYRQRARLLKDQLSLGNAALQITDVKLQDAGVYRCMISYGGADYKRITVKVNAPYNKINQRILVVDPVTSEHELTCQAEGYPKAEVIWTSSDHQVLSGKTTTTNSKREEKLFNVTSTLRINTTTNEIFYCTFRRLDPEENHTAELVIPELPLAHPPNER

For another experiment, the target named is T4, mouse PD-L1-Ig (mouse, UniProt Q9EP73 19-238).
T4 construct: also called mPD-L1-Ig; not shown: Ig part of the fusion
T4 sequence (Q9EP73 19-238): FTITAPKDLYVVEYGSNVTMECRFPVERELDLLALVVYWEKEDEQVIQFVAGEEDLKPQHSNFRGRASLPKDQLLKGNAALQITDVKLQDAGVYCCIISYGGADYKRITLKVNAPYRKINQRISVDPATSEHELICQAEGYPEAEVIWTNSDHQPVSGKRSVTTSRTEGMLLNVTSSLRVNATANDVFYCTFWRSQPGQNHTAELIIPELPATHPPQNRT

Where a chain is given by its changes, count along the chain named.

As a reminder, the Kd is a measure of binding affinity in units of concentration. A high value points to lower affinity.

B1: mouse PD-1 (wild type) (receptor, UniProt Q02242 34-150, looked up)
chain: SLTFYPAWLTVSEGANATFTCSLSNWSEDLMLNWNRLSPSNQTEKQAAFCNGLSQPVQDARFQIIQLPNRHDFHMNILDTRRNDSGIYLCGAISLHPKAKIEESPGAELVVTERILE
notes: also called m PD-1
Regarding B1, the figures for the Kd (with mouse PD-L2-Ig; in experiment [1]; in experiment [2]) were 2800 nM, 10700 nM and 4020 nM, respectively.

B2: mouse HA PD-1 (high-affinity mutant) (receptor, UniProt Q02242 34-150, looked up)
chain: B1 chain with A99L
notes: also called m HA PD-1
On to B2, for which the Kd with mouse PD-L1-Ig came to 2780 nM; with mouse PD-L2-Ig, 470 nM; in experiment [1], 1180 nM; in experiment [2] it was 480 nM.
